Results: publication PMC11480844

B1: H2-Kb / E8 (parent)
chain 1: GDSVTQTEGLVTVTEGLPVKLNCTYQTTYLTIAFFWYVQYLNEAPQVLLKSSTDNKRTEHQGFHATLHKSSSSFHLQKSSAQLSDSALYYCALNTNTGKLTFGDGTVLTVKP
chain 2: EAAVTQSPRNKVAVTGGKVTLSCNQTNNHNNMYWYRQDTGHGLRLIHYSYGAGSTEKGDIPDGYKASRPSQENFSLILELATPSQTSVYFCASGDWGAGTGQLYFGEGSKLTVL
chain 3: not shown
chain 4: IQKTPQIQVYSRHPPENGKPNILNCYVTQFHPPHIEIQMLKNGKKIPKVEMSDMSFSKDWSFYILAHTEFTPTETDTYACRVKHDSMAEPKTVYWDRDM
chain 5: SIINFEKL
B2: H2-Kb / B13 (parent)
chain 1: AQKVTQTQTSISVMEKTTVTMDCVYETQDSSYFLFWYKQTASGEIVFLIRQDSYKKENATVGHYSLNFQKPKSSIGLIITATQIEDSAVYFCAMREGTGGYKVVFGSGTRLLVSP
chain 2: EAAVTQSPRNKVTVTGGNVTLSCRQTNSHNYMYWYRQDTGHGLRLIHYSYGAGNLQIGDVPDGYKATRTTQEDFFLLLELASPSQTSLYFCASSDGTGHEQYFGPGTRLTVL
chain 3: not shown
chain 4: B1 chain 4
chain 5: SIINFEKL
B3: H2-Kb / H5 (parent)
chain 1: GEQVEQRPPHLSVREGDSAVIICTYTDPNSYYFFWYKQEPGAGLQLLMKVFSSTEINEGQGFTVLLNKKDKQLSLNLTAAHPGDSAVYFCAVSNYGSSGNKLIFGIGTLLSVKP
chain 2: EAAVTQSPRNKVAVTGGKVTLSCNQTNNHNNMYWYRQDTGHGLRLIHYSYGAGSTEKGDIPDGYKASRPSQENFSLILELATPSQTSVYFCASGDRERDTQYFGPGTRLLVL
chain 3: not shown
chain 4: B1 chain 4
chain 5: SIINFEKL
B4: H2-Kb / E9 (parent)
chain 1: QQKVQQSPESLTVSEGAMASLNCTFSDRSSDNFRWYRQHSGKGLEVLVSIFSDGEKEEGSFTAHLNRASLHVFLHIREPQPSDSALYLCAVSRSSGSWQLIFGSGTQLTVMP
chain 2: NSGVVQSPRYIIKGKGERSILKCIPISGHLSVAWYQQTQGQELKFFIQHYDKMERDKGNLPSRFSVQQFDDYHSEMNMSALELEDSAVYFCASSRDSNNQAPLFGEGTRLSVL
chain 3: not shown
chain 4: B1 chain 4
chain 5: SIINFEKL

Variants of: B1
Assay: % of reporter cells activated (NFAT-GFP), raw
Details: with E8; scale: % of reporter cells activated
Note: test concentration or dose not given here.

Ratio to parent: each site, then its substitutions
chain 5 F5: C 1.41, I 0.735, K 0.557, H 1.61, A 1.63, D 0.0471, G 1.93, L 0.68, E 0.539
chain 5 E6: M 0.0317, T 0.0257, N 0.03, V 0, P 0.169, L 0.0214, C 0.0282, I 0.0166, W 0.0496, F 0.018, Y 0.00591, H 0.0243, A 0.159, Q 0.115, K 0.03, S 0.0471, G 0.193, D 0.546, R 0.0462

Variants of: B2
Assay: % of reporter cells activated (NFAT-GFP), raw
Details: with B13; scale: % of reporter cells activated

Ratio to parent of substitutions, site by site:
chain 5 N4: D 0.0238, R 0.104, V 0.0342, F 0.393, I 0.179, P 0.0596, H 0.038, C 0.0444, E 0.156, G 0.101, Y 0.0196, T 0.0378, M 0.0596, Q 0.0444, S 0.0507, L 0.0811, K 0.0279, A 0.052, W 0.025
chain 5 E6: H 0.0361, G 0.0583, V 0.038, P 0.101, F 0.0355, C 0.0215, A 0.0525, L 0.0292, Q 0.0298, S 0.0411, R 0.024, W 0.0431, M 0.0342, T 0.0399, I 0.0222, K 0.611, N 0.0224, D 0.0608, Y 0.0507
chain 5 K7: A 0.722, P 0.0545, I 1.32, D 0.108, V 2.07, H 0.431, F 1.21, R 0.987, Y 0.195, G 0.471, E 0.113, C 1.38, S 1.02, T 1.03, Q 0.887, W 1.27, L 3.14, M 4.28, N 1.14
chain 5 I3: Y 0.117, G 1.07, E 4.51, W 0.293, L 2.17, M 5.23, R 1.96, N 1.58, T 1.56, S 1.98, V 2.29, P 5.54, H 1.64, Q 4.85, C 5.34, D 0.0646, F 0.122, K 0.422, A 4.66
chain 5 I2: N 0.347, Q 0.243, P 0.285, M 0.411, G 0.284, T 1.09, A 1.04, V 1.98, L 1.48, Y 2.07, K 1.84, F 1.01, E 0.75, D 0.523, W 2.33, R 1.49, H 1, S 0.848, C 1.49
chain 5 S1: T 0.544, C 0.0621, M 1.15, W 1.35, L 0.112, Y 0.11, Q 0.392, H 0.0963, G 0.236, K 0.64, D 0.113, A 0.835, V 0.857, I 0.381, R 6.17, N 0.0976, P 0.139, F 0.0232, E 0.113
chain 5 F5: Y 0.712, L 0.117, C 0.132, N 0.0634, T 0.195, W 0.0204, G 0.0418, H 0.366, S 0.0431, M 0.316, R 0.0811, Q 0.0482, K 0.15, D 0.179, E 0.0684, P 0.144, A 0.131, V 0.331, I 0.0887
chain 5 L8: Y 0.812, P 2.29, V 0.393, G 1.21, D 2.32, T 0.331, M 0.471, K 0.45, Q 0.247, R 1.98, W 0.423, A 0.227, S 2.06, N 3, H 0.954, F 0.189, C 3.32, E 2.13, I 0.992

Variants of: B3
Assay: % of reporter cells activated (NFAT-GFP), raw
Details: with H5; scale: % of reporter cells activated

Ratio to parent: each site, then its substitutions
chain 5 K7: N 0.893, W 0.352, E 4.34, Q 0.592, G 0.811, I 1.12, H 0.806, T 1.8, A 0.648, P 0.551, F 0.306, Y 0.383, D 0.597, L 0.638, S 0.76, M 0.362, C 0.77, R 1.01, V 0.75
chain 5 I3: C 0.5, R 0.403, D 0.265, T 0.352, Y 0.321, P 0.49, E 0.357, A 0.306, V 0.985, W 0.286, G 0.347, K 0.423, L 0.74, S 0.276, N 0.367, H 0.372, M 0.327, Q 0.337, F 0.276
chain 5 L8: H 0.985, D 0.352, M 0.689, W 0.255, C 0.781, G 0.515, V 0.531, S 0.464, K 0.837, E 0.49, Q 0.842, T 0.719, I 0.786, R 0.485, F 0.423, P 0.332, N 0.281, Y 0.755, A 0.709
chain 5 E6: Y 0.332, K 0.332, N 0.301, A 0.454, C 0.342, P 0.301, F 0.296, R 0.362, Q 0.357, V 0.342, H 0.643, W 0.25, S 0.444, M 0.311, T 0.459, I 0.408, D 0.235, L 0.265, G 0.306
chain 5 N4: D 0.316, M 0.352, A 0.301, K 0.592, G 0.362, S 0.332, V 0.332, I 0.347, E 0.367, T 0.352, C 0.49, L 0.469, P 0.255, Q 0.245, H 8.69, W 0.5, F 1.27, Y 1.1, R 0.454
chain 5 S1: G 0.25, P 0.383, H 0.474, C 0.316, N 0.352, R 0.852, V 0.388, E 0.281, I 0.454, M 2.39, Q 0.469, Y 0.27, K 0.602, L 0.398, T 0.587, A 0.474, W 0.332, F 0.638, D 0.281
chain 5 F5: C 0.816, Q 0.638, S 0.531, L 0.663, H 0.719, T 0.367, K 0.362, D 0.439, R 0.311, E 0.352, Y 0.765, G 0.316, P 0.459, M 1.13, I 2.01, A 0.923, W 0.515, N 0.48, V 0.617
chain 5 I2: D 0.505, Q 0.454, A 0.663, M 0.684, C 0.74, N 0.362, T 0.526, K 0.388, P 0.327, L 0.607, S 0.75, R 0.24, G 0.505, F 0.653, V 1.03, E 0.408, W 0.378, Y 0.352, H 0.332

Variants of: B4
Assay: % of reporter cells activated (NFAT-GFP), raw
Details: with E9; scale: % of reporter cells activated

Ratio to parent: each site, then its substitutions
chain 5 S1: W 1.2, Y 1.2
